Measured values: PMC4161306, “Regulation of Arabidopsis Flowering by the Histone Mark Readers MRG1/2 via Interaction with CONSTANS to Modulate FT Expression” (PLoS Genetics, 2014)
Where no end group is shown, it is not given here. Me3 = trimethyl-lysine; Me2 = dimethyl-lysine

Columns and labels:
GST-fused CONSTANS (CO) = target: T1, GST-fused CONSTANS (CO) (Arabidopsis thaliana, UniProt Q39057 1-373); assay: pull-down; GST-fused CO (or GST alone) with His-tagged MRG2, MRG2C or MRG2N, purified from E. coli; protocol of ref. 51; conditions: both partners purified
T1 construct: Arabidopsis transcription factor CONSTANS (CO); CO cDNA amplified with primers CO-1/CO-2; also called GST-CO; source: E. coli, pGEX-4T-1, purified
T1 sequence (looked up): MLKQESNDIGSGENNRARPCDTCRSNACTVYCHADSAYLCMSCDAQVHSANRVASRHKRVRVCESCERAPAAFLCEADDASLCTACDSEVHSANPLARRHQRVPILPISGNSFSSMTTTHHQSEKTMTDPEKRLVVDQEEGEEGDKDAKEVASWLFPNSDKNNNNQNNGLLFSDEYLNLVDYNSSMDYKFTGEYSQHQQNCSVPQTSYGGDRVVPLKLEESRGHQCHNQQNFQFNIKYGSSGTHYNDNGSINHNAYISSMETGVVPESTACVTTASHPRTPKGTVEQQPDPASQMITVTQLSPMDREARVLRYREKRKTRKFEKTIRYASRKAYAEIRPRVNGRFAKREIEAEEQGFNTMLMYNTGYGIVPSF

[1] = target: T2, MRG2 chromodomain (residues 41-123) (Arabidopsis thaliana, UniProt Q4V3E2 41-123); assay: ITC; 25 C, MicroCal iTC200; 50 mM Tris pH 8.0, 100 mM NaCl; 0.2-0.4 mM protein in the cell, 2-4 mM peptide injected in 2 ul aliquots (20 injections); one-site model; conditions: both partners purified
T2 construct: Arabidopsis thaliana MRG2 chromodomain, residues 41-123; Construct of the ITC; source: cloned into pET28-SMT3, purified, tag removed
T2 sequence (looked up): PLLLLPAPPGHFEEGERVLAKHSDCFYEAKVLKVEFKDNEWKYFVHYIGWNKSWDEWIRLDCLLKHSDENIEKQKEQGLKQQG

B1: His-tagged MRG2C (MRG domain of MRG2) (domain or fragment, Arabidopsis thaliana, UniProt Q4V3E2 148-327, looked up)
chain: RKQDSVDTEKNVLPSDNLLSFNIPPALRKQLLDDFEFVTQMQKLVQLPRSPNVDGILKKYIDSQMKKHGRVTDSLEEILKGLRCYFDKALPVMLLYNNERKQYEESVSGGVSPSTVYGAEHLLRLFVKLPELLVHVNMAEETLKELQDNFVDILRFLRKNQSVLFVSTYKAVEEMEKKEG
notes: Arabidopsis MRG2; MRG2C is cDNA 442-984, which are nucleotides, i.e. from residue 148 to the C-terminus; holds the MRG domain; source: E. coli, pET-30a, purified (His tag)
B1: binds (GST-fused CONSTANS (CO)).

B2: H3K4me2 peptide (residues 1-9) (peptide)
chain: ARTK(Me2)QTARK
For B2, the Kd [1] was 2400 µM.

B3: His-tagged MRG2 (natural protein, Arabidopsis thaliana, UniProt Q4V3E2 1-327, looked up)
chain: MGSPNAAAETDLTTDDFIGDTRRDSGSDTETNTDCDGEDLPLLLLPAPPGHFEEGERVLAKHSDCFYEAKVLKVEFKDNEWKYFVHYIGWNKSWDEWIRLDCLLKHSDENIEKQKEQGLKQQGIKSAMAWKVSKMKPRSPNVARGRKRKQDSVDTEKNVLPSDNLLSFNIPPALRKQLLDDFEFVTQMQKLVQLPRSPNVDGILKKYIDSQMKKHGRVTDSLEEILKGLRCYFDKALPVMLLYNNERKQYEESVSGGVSPSTVYGAEHLLRLFVKLPELLVHVNMAEETLKELQDNFVDILRFLRKNQSVLFVSTYKAVEEMEKKEG
notes: Arabidopsis MRG2 cDNA amplified with primers MRG2-1/MRG2-10; MRG2-1 is the forward primer of MRG2N (cDNA from nucleotide 1) and MRG2-10 the reverse primer of MRG2C (cDNA to nucleotide 984); also called MRG2 tagged with multiple His residues; His-MRG2; source: E. coli, pET-30a, purified (His tag)
B3: binds (GST-fused CONSTANS (CO)).

B4: H3K27me3 peptide (residues 23-31) (peptide)
chain: KAARK(Me3)SAPA
For B4, the Kd [1] was 2500 µM.

B5: H3K9me3 peptide (residues 4-13) (peptide)
chain: KQTARK(Me3)STGG
B5 gave a Kd [1] of 1200 µM.
